{"source": "the Human Domainome abundance scans (Beltran et al. 2025)", "parents": {"B1": {"name": "Tumor protein p73, residues 487 to 549; numbered along this chain, O15350 (parent)", "chain": "YHADPSLVSFLTGLGCPNCIEYFTSQGLQSIYHLQNLTIEDLGALKIPEQYRMTIWRGLQDLK"}, "B2": {"name": "Homeobox protein SIX3, residues 212 to 262; numbered along this chain, O95343 (parent)", "chain": "CFKERTRSLLREWYLQDPYPNPSKKRELAQATGLTPTQVGNWFKNRRQRDR"}}, "note": "± gives the uncertainty stated by the source."}
{"variants_of": "B1", "assay": "abundance fitness (aPCA) (normalised: wild type 0, dead -1); higher = more abundant; growth selection in yeast, the domain comes from the species named", "details": "Homo sapiens"}
{"variant": "D61Y", "abundance fitness": "-0.157 ± 0.1"}
{"variant": "D61P", "abundance fitness": "-0.092 ± 0.051"}
{"variant": "D61C", "abundance fitness": "-0.245 ± 0.11"}
{"variant": "D61E", "abundance fitness": "-0.068 ± 0.068"}
{"variant": "D61T", "abundance fitness": "-0.003 ± 0.035"}
{"variant": "D61H", "abundance fitness": "0.039 ± 0.088"}
{"variant": "D61G", "abundance fitness": "0.035 ± 0.047"}
{"variant": "D61F", "abundance fitness": "-0.572 ± 0.25"}
{"variant": "D61L", "abundance fitness": "-0.087 ± 0.041"}
{"variant": "D61V", "abundance fitness": "-0.104 ± 0.045"}
{"variant": "D61W", "abundance fitness": "-0.127 ± 0.056"}
{"variant": "D61M", "abundance fitness": "-0.002 ± 0.053"}
{"variant": "D61A", "abundance fitness": "-0.136 ± 0.039"}
{"variant": "D61N", "abundance fitness": "-0.046 ± 0.041"}
{"variant": "D61Q", "abundance fitness": "-0.126 ± 0.053"}
{"variant": "D61K", "abundance fitness": "-0.103 ± 0.047"}
{"variant": "D61I", "abundance fitness": "0.006 ± 0.046"}
{"variant": "D61R", "abundance fitness": "-0.066 ± 0.034"}
{"variant": "R57T", "abundance fitness": "0.024 ± 0.054"}
{"variant": "R57S", "abundance fitness": "-0.114 ± 0.043"}
{"variant": "R57W", "abundance fitness": "-0.114 ± 0.039"}
{"variant": "R57Q", "abundance fitness": "-0.036 ± 0.042"}
{"variant": "R57V", "abundance fitness": "-0.255 ± 0.051"}
{"variant": "R57Y", "abundance fitness": "-0.023 ± 0.056"}
{"variant": "R57P", "abundance fitness": "-0.625 ± 0.11"}
{"variant": "L62W", "abundance fitness": "0.071 ± 0.039"}
{"variant": "L62Y", "abundance fitness": "0.008 ± 0.087"}
{"variant": "L62E", "abundance fitness": "-0.007 ± 0.038"}
{"variant": "L62A", "abundance fitness": "-0.104 ± 0.045"}
{"variant": "L62C", "abundance fitness": "-0.117 ± 0.095"}
{"variant": "L62P", "abundance fitness": "-0.032 ± 0.058"}
{"variant": "L62K", "abundance fitness": "-0.257 ± 0.08"}
{"variant": "L62V", "abundance fitness": "-0.007 ± 0.033"}
{"variant": "L62S", "abundance fitness": "-0.083 ± 0.036"}
{"variant": "L62N", "abundance fitness": "0.058 ± 0.088"}
{"variant": "L62F", "abundance fitness": "-0.059 ± 0.053"}
{"variant": "L62I", "abundance fitness": "-0.044 ± 0.07"}
{"variant": "L59G", "abundance fitness": "-0.538 ± 0.075"}
{"variant": "L59H", "abundance fitness": "-0.801 ± 0.18"}
{"variant": "L59Q", "abundance fitness": "-0.554 ± 0.092"}
{"variant": "L59C", "abundance fitness": "-0.106 ± 0.1"}
{"variant": "L59F", "abundance fitness": "-0.065 ± 0.053"}
{"variant": "L59T", "abundance fitness": "-0.157 ± 0.05"}
{"variant": "L59N", "abundance fitness": "-0.631 ± 0.13"}
{"variant": "L59Y", "abundance fitness": "-0.097 ± 0.12"}
{"variant": "L59V", "abundance fitness": "0.046 ± 0.056"}
{"variant": "L59E", "abundance fitness": "-0.95 ± 0.16"}
{"variant": "L59S", "abundance fitness": "-0.265 ± 0.039"}
{"variant": "L59K", "abundance fitness": "-0.561 ± 0.11"}
{"variant": "L59M", "abundance fitness": "-0.042 ± 0.078"}
{"variant": "L59A", "abundance fitness": "-0.054 ± 0.054"}
{"variant": "L59R", "abundance fitness": "-0.733 ± 0.063"}
{"variant": "L59W", "abundance fitness": "-0.213 ± 0.05"}
{"variant": "Q60S", "abundance fitness": "0.018 ± 0.036"}
{"variant": "Q60L", "abundance fitness": "-0.013 ± 0.04"}
{"variant": "Q60E", "abundance fitness": "0.101 ± 0.044"}
{"variant": "Q60T", "abundance fitness": "-0.017 ± 0.079"}
{"variant": "Q60W", "abundance fitness": "-0.068 ± 0.035"}
{"variant": "Q60Y", "abundance fitness": "0.06 ± 0.1"}
{"variant": "Q60H", "abundance fitness": "-0.246 ± 0.083"}
{"variant": "Q60G", "abundance fitness": "-0.027 ± 0.03"}
{"variant": "Q60C", "abundance fitness": "-0.102 ± 0.075"}
{"variant": "Q60M", "abundance fitness": "0.031 ± 0.046"}
{"variant": "Q60D", "abundance fitness": "-0.01 ± 0.058"}
{"variant": "Q60N", "abundance fitness": "0.089 ± 0.057"}
{"variant": "Q60K", "abundance fitness": "0.117 ± 0.044"}
{"variant": "Q60A", "abundance fitness": "0.047 ± 0.027"}
{"variant": "Q60P", "abundance fitness": "-0.388 ± 0.05"}
{"variant": "Q60I", "abundance fitness": "0.034 ± 0.066"}
{"variant": "Q60V", "abundance fitness": "-0.041 ± 0.034"}
{"variant": "Q60F", "abundance fitness": "-0.096 ± 0.071"}
{"variant": "K63H", "abundance fitness": "-0.34 ± 0.37"}
{"variant": "K63E", "abundance fitness": "0.103 ± 0.063"}
{"variant": "K63L", "abundance fitness": "-0.261 ± 0.087"}
{"variant": "K63C", "abundance fitness": "-0.239 ± 0.088"}
{"variant": "K63T", "abundance fitness": "0.172 ± 0.14"}
{"variant": "K63W", "abundance fitness": "-0.044 ± 0.25"}
{"variant": "K63N", "abundance fitness": "-0.245 ± 0.3"}
{"variant": "K63G", "abundance fitness": "-0.002 ± 0.075"}
{"variant": "K63P", "abundance fitness": "-0.394 ± 0.38"}
{"variant": "K63Q", "abundance fitness": "0.074 ± 0.28"}
{"variant": "K63A", "abundance fitness": "-0.082 ± 0.16"}
{"variant": "K63S", "abundance fitness": "0 ± 0.058"}
{"variant": "K63R", "abundance fitness": "-0.159 ± 0.14"}
{"variant": "G58R", "abundance fitness": "-0.197 ± 0.046"}
{"variant": "G58W", "abundance fitness": "-0.932 ± 0.12"}
{"variant": "G58Y", "abundance fitness": "-0.723 ± 0.28"}
{"variant": "G58A", "abundance fitness": "0.038 ± 0.045"}
{"variant": "G58V", "abundance fitness": "-0.846 ± 0.082"}
{"variant": "G58L", "abundance fitness": "-1.02 ± 0.1"}
{"variant": "G58Q", "abundance fitness": "-0.117 ± 0.049"}
{"variant": "G58I", "abundance fitness": "-0.68 ± 0.38"}
{"variant": "G58E", "abundance fitness": "0.014 ± 0.033"}
{"variant": "G58D", "abundance fitness": "-0.528 ± 0.086"}
{"variant": "G58M", "abundance fitness": "-0.896 ± 0.12"}
{"variant": "G58F", "abundance fitness": "-0.708 ± 0.17"}
{"variant": "G58H", "abundance fitness": "-0.116 ± 0.11"}
{"variant": "G58N", "abundance fitness": "-0.36 ± 0.078"}
{"variant": "G58S", "abundance fitness": "-0.104 ± 0.047"}
{"variant": "G58P", "abundance fitness": "-0.433 ± 0.075"}
{"variant": "G58T", "abundance fitness": "-0.358 ± 0.052"}
{"variants_of": "B2", "assay": "abundance fitness (aPCA) (normalised: wild type 0, dead -1); higher = more abundant; growth selection in yeast, the domain comes from the species named", "details": "Homo sapiens"}
{"variant": "R46Y", "abundance fitness": "-0.504 ± 0.14"}
{"variant": "R46M", "abundance fitness": "-0.182 ± 0.061"}
{"variant": "A31W", "abundance fitness": "-0.326 ± 0.052"}
{"variant": "A31G", "abundance fitness": "-0.651 ± 0.044"}
{"variant": "G40W", "abundance fitness": "-0.81 ± 0.052"}
{"variant": "G40K", "abundance fitness": "0.097 ± 0.05"}
{"variant": "L28W", "abundance fitness": "-0.572 ± 0.056"}
{"variant": "W42Y", "abundance fitness": "-0.398 ± 0.05"}
{"variant": "P20F", "abundance fitness": "-0.799 ± 0.11"}
{"variant": "P20K", "abundance fitness": "-0.977 ± 0.17"}
{"variant": "N41A", "abundance fitness": "-0.496 ± 0.2"}
{"variant": "N41P", "abundance fitness": "-0.614 ± 0.29"}
{"variant": "T35A", "abundance fitness": "-0.861 ± 0.13"}
{"variant": "L9H", "abundance fitness": "-0.417 ± 0.16"}
{"variant": "L9R", "abundance fitness": "-0.369 ± 0.063"}
{"variant": "L9S", "abundance fitness": "-0.733 ± 0.074"}
{"variant": "N45H", "abundance fitness": "-0.209 ± 0.14"}
{"variant": "N45Y", "abundance fitness": "-0.725 ± 0.24"}
{"variant": "T32E", "abundance fitness": "-0.908 ± 0.061"}
{"variant": "T32N", "abundance fitness": "-0.637 ± 0.2"}
{"variant": "R47G", "abundance fitness": "-0.898 ± 0.081"}
{"variant": "R47M", "abundance fitness": "-0.975 ± 0.11"}
{"variant": "P36M", "abundance fitness": "0.03 ± 0.074"}
{"variant": "P36E", "abundance fitness": "0.066 ± 0.046"}
{"variant": "Q30C", "abundance fitness": "-0.243 ± 0.039"}
{"variant": "Q30W", "abundance fitness": "-0.097 ± 0.072"}
{"variant": "R7I", "abundance fitness": "0.083 ± 0.19"}
{"variant": "R7N", "abundance fitness": "0.188 ± 0.15"}
{"variant": "R7L", "abundance fitness": "-0.272 ± 0.096"}
{"variant": "R49C", "abundance fitness": "-0.539 ± 0.1"}
{"variant": "R49A", "abundance fitness": "-0.222 ± 0.079"}
{"variant": "R49T", "abundance fitness": "-0.18 ± 0.082"}
{"variant": "E27C", "abundance fitness": "-0.819 ± 0.2"}
{"variant": "E27A", "abundance fitness": "-0.55 ± 0.09"}
{"variant": "E12P", "abundance fitness": "-0.872 ± 0.12"}
{"variant": "E12D", "abundance fitness": "-0.098 ± 0.072"}
{"variant": "N21T", "abundance fitness": "0.224 ± 0.068"}
{"variant": "S23E", "abundance fitness": "0.002 ± 0.08"}
{"variant": "P18T", "abundance fitness": "-0.629 ± 0.14"}
{"variant": "P18V", "abundance fitness": "-0.687 ± 0.062"}
{"variant": "K25P", "abundance fitness": "-0.84 ± 0.067"}
{"variant": "A29H", "abundance fitness": "-0.777 ± 0.34"}
{"variant": "R11Q", "abundance fitness": "-0.23 ± 0.09"}
{"variant": "Q48V", "abundance fitness": "-0.545 ± 0.086"}
{"variant": "Q48H", "abundance fitness": "-0.042 ± 0.18"}
{"variant": "Q48A", "abundance fitness": "0.028 ± 0.069"}
{"variant": "L10E", "abundance fitness": "-0.886 ± 0.084"}
{"variant": "L34D", "abundance fitness": "-0.798 ± 0.2"}
{"variant": "L34G", "abundance fitness": "-0.72 ± 0.086"}
{"variant": "L34I", "abundance fitness": "-0.445 ± 0.082"}
{"variant": "P22M", "abundance fitness": "-0.266 ± 0.11"}
{"variant": "Y19T", "abundance fitness": "-0.278 ± 0.088"}
{"variant": "Y19V", "abundance fitness": "-0.474 ± 0.048"}
{"variant": "D50A", "abundance fitness": "-0.579 ± 0.11"}
{"variant": "D50H", "abundance fitness": "-0.515 ± 0.14"}
{"variant": "T6W", "abundance fitness": "-0.434 ± 0.079"}
{"variant": "T6E", "abundance fitness": "-0.287 ± 0.061"}
{"variant": "F43P", "abundance fitness": "-0.941 ± 0.14"}
{"variant": "T37M", "abundance fitness": "-0.055 ± 0.091"}
{"variant": "Q16D", "abundance fitness": "-0.601 ± 0.38"}
{"variant": "Q16S", "abundance fitness": "-0.285 ± 0.046"}
{"variant": "Q16N", "abundance fitness": "-0.092 ± 0.13"}
{"variant": "K44H", "abundance fitness": "-0.354 ± 0.071"}
{"variant": "R26N", "abundance fitness": "0.385 ± 0.1"}
{"variant": "R26A", "abundance fitness": "0.181 ± 0.056"}
{"variant": "V39Y", "abundance fitness": "-0.897 ± 0.28"}
